Reference: the DeepSol protein solubility set

Assay: soluble on expression in E. coli; label from the status in PepcDB or PDB records

Soluble on expression in E. coli, not soluble:
MGSDKIHHHHHHVPMGKLIASLVDIVKKNKFVDDTQKALFDNFENTKRVNVYIDDLDRGWEGRKEDIRRISALLNAVRDISNEMDNVHFMISLRSDVYYLVRTSDESTDKISGSVIWYTWDRHQILALLAKRVETFFGRDISENSLMGMHQSKIAQYLDPIMTQHFEGKGKWENAPIYRILMSLIRNRPRDLVMICTLAARNARKKGRSKILTEDLQSIFEDYSLERIQDIENEFKSELPEIRRLLFALKPSAKKSSKFSDLYVYTTDQVEAKIQSASANAPFYFSNNNKQATSEELHYFLYKINFLTARRKNKDDVLVRKTFEENKYLTGRFVDFGFGWEVHPAYRWALEPDDSESIYARLDLLDFE, MGSDKIHHHHHHVREVSKEKGKIDLVSGAASTPLTNDKCSPTGFHWTYDTYALANGTGNAVVKNGGKTWFFLTADYAFGHNLQAQTEKVVKANGGEVKGAVKHPFPNSDFSSFLLQAQASGAQIIGLANAGADTINAIKQAKEFGITQAGQQLAGLLVFITDIHSLGLETAQGMMLTTGFYWDMDDQTRAWSKRWSEKMGNGKMPSMVHAGTYSQVLHYLRAAAAAKTDEGIKVADEMRKLPINDFFAKNGKIRADGRMVHDMYLAQVKKPSESKGPWDYYKIVRTIPGDEAYQPLSESTCSLVKK, MGSDKIHHHHHHVRFIMKTNLFTSLLKKCIYGLSWFFPRQGNKAVFGCYKNLFADNSKYLYLHWHKNKFMHVIWISGDASLVNALRKKGFIAYERWSLEGVYHALTARFYIYNSYIGDVNQWFASGSIKINLWHGSPLKRIEFDIDHGPLAHKYQSNSYWQKTWHSLLYHQEYVRPQLMLSPSPLVDRLFCSAFRLQKKQLLSCGNPRTDFYRRYPDKCQSINSKPDGTSYKKVILYAPSWRDANLSNTETVQSPYEKAFNWGVLSQFLVNSDCLFLLRLHPNERHYAKHFSAYPNVRDISSWEDVYGILHQVDLLLTDYSSLFIDVLPLNIPIVFYLFDHESYIKNSRNCYEYSQCLPQAGLIAYGFEELINILKNNTSKKQTETLHLAYTQLQKLYWQEMNEHSDCFELLERYICRRNLLKSPLNTQIS, MGSDKIHHHHHHVRLWIPHVTRPTVQPASSYATYSVMPGATVKELADLIGVSTTAVRDHLVHLQAEGMVEVTSERSGPGRPRLVYSLSEKAQKSFPKQYDRLISTLLRELIELEGEGKVEQLLDRVSQRLASEYADRMAGSDVAARLNELRALLEQRGVPAEIDPEGDVLRLFACPYYDVAADYPEVCSMERRMIEYVLGEKLVLEDTIRAGAHNCRFVLRPQDIPLTMTPPAADPTTEV, MGSDKIHHHHHHVSATDTLDKTGTQTSAVRLGDLETPCLVLDADRMDRNIARLRDRIAGLGVTLRPHLKTAKSVEVARRVMATSEGPATVSTLKEAEFFADAGVRDIIYAVGIAPWKLAKVIELRKRGVDLAVVLDTVELAQAVAAASRESGMAIPALIEIDCDGHRSGVLPRDSERLLAIGKALVEGGELRGVLTHAGGSYAARGEEALRNAAEEERASVVNAAAILRDAGLPCPVVSVGSTPTAHHATDLTGVTEVRAGVFVFFDLVMTGIGICTVDDIAISVLATVIGHQREKGWILVDAGWMAMSQDRGTAKQVVNQGYGVVCKCDGTPYADLILADANQEHGIIMVRPGSDGTLPDLAIGDRVRILPNHACATGAQHRRYNVVHGTSDVVTGEWQRFGGW, MGSDKIHHHHHHVSDLEWVLAIPHEQAFKRMEEPWGGAKTSYLTGIKETLEANYGPIHFTRLYFGEEFCERALSTGKALEEAVAAAEERGWGFTYVTPYLTETGLTKVRLLLDILAQTKPEAEVVINDWGVLDWVTEHHPTFTPVLGRLMNKIIRDPRMPDSLRNSPDQTVMHKFRTCNLAGGEMKDLLDQYQVKRIELDYPPQGLDPNLPAWGYDISLSIPYGVIMTGRICLMQSWGLAAGEKFRTTGPCPRRCRLGWLELSDPSGRVKKDQDWQIMQKGNTVFYRQSKEFLAEILTEAEKTGVSRMIFQPEPI, MGSDKIHHHHHHVSKIGIPRTLAYFIYFPLWKTFFEELGHEVVLSPATSKAILDRGVKEAVNDACIPIKLYHGHAAALAGKVDYIFCPRLVSVRSHGDFGTETFCPKFLGLPDMLRLAMDDLPEIIDVRVDLKQGKDGLWQLSQEIGKGLGNSREEIKRAFNRAREQQRQYNRLLYQEMLPLEALKIIEQKNPIPKKEKSNENYDLQVAVVGYPYLLYDAYINAGLLAILEKEKVKVYTQDIISDRKMNQQAKTLPKSTFWYFSNRVIYGALHFMQRPEIEGVIHLTAFACGPDSMVDRLLEIESRRRGNRPYLSIAVDEHTGEAGVRTRIEAFVDMLRYRRERK
